US20120316071A1 (published 2012)
Substitutions are numbered along the chain they refer to. In names and notes the source's numbering stands.

Columns and labels:
[1] = target: T1, Recombinant Human DLL4 (R&D Systems Cat#1506-D4/CF) (human, UniProt Q9NR61 27-524); test: ELISA and 96-well plate ECL
T1 construct: bought recombinant protein; also called rHuman DLL4; delta-like protein 4

[2] = target: T2, rHuman ErbB2/Fc Chimera, CF (R&D Systems Cat#1129-ER) (human, UniProt P04626 23-652); test: ECL multispot (MSD) binding assay, antigen spotted on plate, Fab 0.04 uM;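 further: purified Fab incubated 1 h at 20 °C on antigen spots, detected via TAG-labelled antibody, ECL read against each well's blank, with signal-to-blank of at least 4 scored as binder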
T2 construct: Bought recombinant protein; also called human epidermal growth factor 2 receptor; Fc part of the bought chimera not given

[3] = target: T3, rHuman HGF R/c-MET/Fc Chimera, CF (R&D Systems Cat#358-MT/CF) (human, UniProt P08581 25-932); test: as above
T3 construct: Bought recombinant protein; also called HGF R/Fc; hepatocyte growth factor receptor; Fc part of the bought chimera not given

[4] = target: T4, rHuman EGF R/Fc Chimera, CF (R&D Systems Cat#344-ER) (human, UniProt P00533 25-645); test: as above
T4 construct: Bought recombinant protein; also called epidermal growth factor receptor; Fc part of the bought chimera not given

[5] = target: T5, rHuman Erythropoietin R/Fc Chimera, CF (R&D Systems Cat#963-ER) (human, UniProt P19235 25-250); test: as above
T5 construct: Bought recombinant protein; also called EPO R; EPO R/Fc; Fc part of the bought chimera not given
T5 sequence (looked up): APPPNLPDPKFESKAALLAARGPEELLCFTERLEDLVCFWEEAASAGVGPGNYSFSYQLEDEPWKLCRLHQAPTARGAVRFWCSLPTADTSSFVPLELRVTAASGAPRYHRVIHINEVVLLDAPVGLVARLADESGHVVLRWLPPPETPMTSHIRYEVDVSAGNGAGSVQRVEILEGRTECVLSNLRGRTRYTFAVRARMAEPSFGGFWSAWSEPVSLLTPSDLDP

[6] = target: T6, Recombinant Human DLL4 (R&D Systems Cat#1506-D4/CF) (human, UniProt Q9NR61 27-524); test: as above
T6 construct: Bought recombinant protein; also called delta-like protein 4; rHuman DLL4

[7] = target: T7, rHuman CD44/Fc Chimera, CF (R&D Systems Cat#3660-CD) (human, UniProt P16070 21-220); test: as above
T7 construct: Bought recombinant protein; Fc part of the bought chimera not given

[8] = target: T8, rHuman P-Cadherin/Fc Chimera, CF (R&D Systems Cat#861-PC) (human, UniProt P22223 108-654); test: as above
T8 construct: Bought recombinant protein; Fc part of the bought chimera not given

[9] = target: T9, rHuman Notch-1/Fc Chimera, CF (R&D Systems Cat#3647-TK) (human, UniProt P46531 19-526); test: as above
T9 construct: Bought recombinant protein; Fc part of the bought chimera not given

[10] = target: T10, Recombinant Human DLL4 (delta-like protein 4) (human, UniProt Q9NR61 27-524); test: ELISA, Fab on plate-coated recombinant human DLL4
T10 construct: also called rHuman DLL4; Delta-like 4

[11] = target: T11, Recombinant Human DLL4 (delta-like protein 4) (human, UniProt Q9NR61 27-524); test: SPR, Fab on recombinant human DLL4
T11 construct: Bought recombinant protein; also called rHuman DLL4; Delta-like 4

[12] = target: T11, Recombinant Human DLL4 (delta-like …); test: SPR, Fab on recombinant human DLL4; column head x10^-3 applied
[13] = target: T11, Recombinant Human DLL4 (delta-like …); test: SPR, Fab on recombinant human DLL4; column head x10^5 applied
[14] = target: T12, rHuman EGF R/Fc Chimera, CF (human, UniProt P00533 25-645); test: ECL multispot (MSD) binding assay, antigen spotted on plate, 100 nM Fab
T12 construct: Bought protein; also called epidermal growth factor receptor; Fc part of the bought chimera not given

[15] = target: T13, rHuman P-Cadherin/Fc Chimera, CF (human, UniProt P22223 108-654); test: as above
T13 construct: Bought protein; Fc part of the bought chimera not given

[16] = target: T14, rHuman IGF-1 sR, (IGF-1 sR), CF (human, UniProt P08069 31-932); test: as above
T14 construct: The column head prints 'IGF-1'; The antigen panel of the assay holds the soluble IGF-1 receptor, not the ligand; also called insulin-like growth factor-1 soluble receptor

[17] = target: T15, rHuman Notch-1/Fc Chimera, CF (human, UniProt P46531 19-526); test: as above
T15 construct: Bought protein; Fc part of the bought chimera not given

[18] = target: T16, rHuman Erythropoietin R/Fc Chimera, CF (human, UniProt P19235 25-250); test: as above
T16 construct: Bought protein; also called EPO R; EPO R/Fc; Fc part of the bought chimera not given
T16 sequence (looked up): T5 sequence (looked up)

[19] = target: T17, rHuman ErbB2/Fc Chimera, CF (human, UniProt P04626 23-652); test: as above
T17 construct: Bought protein; also called human epidermal growth factor 2 receptor; Fc part of the bought chimera not given

[20] = target: T18, rHuman CD44/Fc Chimera, CF (human, UniProt P16070 21-220); test: as above
T18 construct: Bought protein; Fc part of the bought chimera not given

[21] = target: T19, rHuman Notch-1/Fc Chimera, CF (R&D Systems Cat#3647-TK) (human, UniProt P46531 19-526); test: ECL (MSD) multispot binding assay, antigen spotted on plate, 20 nM Fab;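 further: purified Fab incubated 1 h at 20 °C on antigen-spotted plate, bound Fab revealed with TAG detection antibody, ECL read, antigen signal divided by same-well blank, ratio ≥4 counted as hit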
T19 construct: Bought reagent; Fc part of the bought chimera not given

[22] = target: T20, Recombinant Human DLL4 (R&D Systems Cat#1506-D4/CF) (human, UniProt Q9NR61 27-524); test: as above
T20 construct: Bought recombinant protein; also called delta-like protein 4; rHuman DLL4

[23] = target: T21, rHuman P-Cadherin/Fc Chimera, CF (R&D Systems Cat#861-PC) (human, UniProt P22223 108-654); test: as above
T21 construct: Bought reagent; Fc part of the bought chimera not given

[24] = target: T22, rHuman Erythropoietin R/Fc Chimera, CF (R&D Systems Cat#963-ER) (human, UniProt P19235 25-250); test: as above
T22 construct: Bought reagent; also called EPO R; EPO R/Fc; Fc part of the bought chimera not given
T22 sequence (looked up): T5 sequence (looked up)

[25] = target: T23, rHuman HGF R/c-MET/Fc Chimera, CF (R&D Systems Cat#358-MT/CF) (human, UniProt P08581 25-932); test: as above
T23 construct: Bought reagent; also called HGF R/Fc; hepatocyte growth factor receptor; Fc part of the bought chimera not given

[26] = target: T24, rHuman IGF-1 sR, CF (R&D Systems Cat#391-GR) (human, UniProt P08069 31-932); test: as above
T24 construct: Bought soluble receptor; also called insulin-like growth factor-1 soluble receptor

[27] = target: T25, rHuman ErbB2/Fc Chimera, CF (R&D Systems Cat#1129-ER) (human, UniProt P04626 23-652); test: as above
T25 construct: Bought reagent; also called human epidermal growth factor 2 receptor; Fc part of the bought chimera not given

[28] = target: T26, rHuman CD44/Fc Chimera, CF (R&D Systems Cat#3660-CD) (human, UniProt P16070 21-220); test: as above
T26 construct: Bought reagent; Fc part of the bought chimera not given

[29] = target: T27, rHuman EGF R/Fc Chimera, CF (R&D Systems Cat#344-ER) (human, UniProt P00533 25-645); test: as above
T27 construct: Bought reagent; also called epidermal growth factor receptor; Fc part of the bought chimera not given

B1: Fab VH1-46_IGHD6-6*01_IGHJ1*01 S102A/S103P/S104F/H111F (H:APFF) & L6_IGKJ1*01 S28N/S30D/S31H (L:NDH) (Fab, V domains shown)
VH: QVQLVQSGAEVKKPGASVKVSCKASGYTFTSYYMHWVRQAPGQGLEWMGIINPSGGSTSYAQKFQGRVTMTRDTSTSTVYMELSSLRSEDTAVYYCAREEYAPFSAEYFQFWGQGTLVTVSS
VL: EIVLTQSPATLSLSPGERATLSCRASQNVDHYLAWYQQKPGQAPRLLIYDASNRATGIPARFSGSGSGTDFTLTISSLEPEDFAVYYCQQRSNWPPWTFGQGTKVEIKR
notes: Fab; also called H:APFF & L:NDH; APFF-NDH
fold affinity against the parent antibody APFF mutant [1]: 4 fold

B2: Fab VH1-46_IGHD6-6*01_IGHJ1*01 S102A/S103P/S104F/H111F/G56A (H:APFF G56A) & L6_IGKJ1*01 S28N/S30D/S31H (L:NDH) (Fab, V domains shown)
VH: B1 VH with G56A
VL: B1 VL
notes: Fab; also called H:APFF G56A & L:NDH
fold affinity against the H:APFF & L:wt parental antibody mutant [1]: 8 fold

B3: Fab VH5-51_IGHD5-18*01>3_IGHJ4*01 G100K/G104T (H:KT) & V3-4_IGLJ1*01 V91A (Fab, V domains shown)
VH: EVQLVQSGAEVKKPGESLKISCKGSGYSFTSYWIGWVRQMPGKGLEWMGIIYPGDSDTRYSPSFQGQVTISADKSISTAYLQWSSLKASDTAMYYCARRKYSYTYDYFDYWGQGTLVTVSS
VL: QTVVTQEPSFSVSPGGTVTLTCGLSSGSVSTSYYPSWYQQTPGQAPRTLIYSTNTRSSGVPDRFSGSILGNKAALTITGAQADDESDYYCALYMGSGISYVFGTGTKVTVL
notes: Fab; Expressed from Plasmid A (CH1, His6 and Flag tags) and Plasmid E (lambda CL); also called KT & V91A
ECL signal [2]: 1120 | ECL signal [3]: 1110 | ECL signal [4]: 833 | ECL signal [5]: 675 | ECL signal [6]: 33400 | ECL signal [7]: 632 | ECL signal [8]: 484 | ECL signal [9]: 682

B4: Fab VH5-51_IGHD5-18*01>3_IGHJ4*01 G100K/G104T (H:KT) & V3-4_IGLJ1*01 G23L (Fab, V domains shown)
VH: B3 VH
VL: B3 VL with G23L, A91V
notes: Fab (CH1 with His6/Flag tags from Plasmid A, lambda CL from Plasmid E); also called G100K/G104T & G23L
ELISA signal [10]: 0.1

B5: Fab VH5-51_IGHD5-18*01>3_IGHJ4*01 G100K/G104T G24T/S28R/G35V & V3-4_IGLJ1*01 V91L/S96P (Fab, V domains shown)
VH: B3 VH with G24T, S28R, G35V
VL: B3 VL with A91L, S96P
notes: Fab made in E. coli; VH was cloned in Plasmid A (CH1, His6 and Flag tags) and VL in Plasmid E (lambda CL); also called H:KT TRV & L:LP
Kd [11]: 3.3 nM | koff [12]: 0.036 s⁻¹ | kon [13]: 1.1e+07 M⁻¹ s⁻¹

B6: Fab VH5-51_IGHD5-18*01>3_IGHJ4*01 G100K/G104T G24T/S28R/G35V & V3-4_IGLJ1*01 V91L/S96P S52G (Fab, V domains shown)
VH: B3 VH with G24T, S28R, G35V
VL: B3 VL with S52G, A91L, S96P
notes: Fab made in E. coli; VH was cloned in Plasmid A (CH1, His6 and Flag tags) and VL in Plasmid E (lambda CL); also called H:KT TRV & L:LP S52G
Kd [11]: 5 nM | koff [12]: 0.0147 s⁻¹ | kon [13]: 2.96e+06 M⁻¹ s⁻¹

B7: Fab VH3-23_IGHD2-21*01>3_IGHJ6*01 I107A & V2-13_IGLJ2*01 (Fab, V domains shown)
VH: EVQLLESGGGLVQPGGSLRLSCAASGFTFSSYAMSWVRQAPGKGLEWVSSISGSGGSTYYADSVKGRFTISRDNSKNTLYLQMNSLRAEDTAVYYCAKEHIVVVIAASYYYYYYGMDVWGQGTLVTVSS
VL: SSELTQDPAVSVALGQTVRITCQGDSLRSYYASWYQQKPGQAPVLVIYGKNNRPSGIPDRFSGSSSGNTASLTITGAQAEDEADYYCNSRDSSGNHLVVFGGGTKLTVL
notes: Tested as a Fab made in E. coli
ECL signal/blank ratio (quantity not given) [14]: 4.3 | ECL signal/blank ratio (quantity not given) [15]: 19.6 | ECL signal/blank ratio (quantity not given) [16]: 1.1 | ECL signal/blank ratio (quantity not given) [17]: 2.7 | ECL signal/blank ratio (quantity not given) [18]: 43.6 | ECL signal/blank ratio (quantity not given) [19]: 4.8 | ECL signal/blank ratio (quantity not given) [20]: 1.5

B8: Fab VH3-23_IGHD2-21*01>3_IGHJ6*01 S108A & V2-13_IGLJ2*01 (Fab, V domains shown)
VH: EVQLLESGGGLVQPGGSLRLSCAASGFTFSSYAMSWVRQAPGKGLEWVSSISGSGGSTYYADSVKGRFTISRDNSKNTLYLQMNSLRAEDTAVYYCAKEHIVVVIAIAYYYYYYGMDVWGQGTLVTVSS
VL: B7 VL
notes: as for B7
ECL signal/blank ratio (quantity not given) [14]: 2 | ECL signal/blank ratio (quantity not given) [15]: 4.8 | ECL signal/blank ratio (quantity not given) [16]: 1.2 | ECL signal/blank ratio (quantity not given) [17]: 1.5 | ECL signal/blank ratio (quantity not given) [18]: 9.5 | ECL signal/blank ratio (quantity not given) [19]: 1.9 | ECL signal/blank ratio (quantity not given) [20]: 1.3

B9: Fab VH3-23_IGHD2-21*01>3_IGHJ6*01 H100E/S108P/Y113G Y114P & V2-13_IGLJ2*01 (Fab, V domains shown)
VH: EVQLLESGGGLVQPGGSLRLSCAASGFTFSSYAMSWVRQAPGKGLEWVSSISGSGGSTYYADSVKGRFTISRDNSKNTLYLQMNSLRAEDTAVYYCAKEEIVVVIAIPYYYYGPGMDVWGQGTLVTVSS
VL: B7 VL
notes: Tested as Fab made in E. coli (VH-CH1 with His and Flag tags; lambda CL); also called EPG Y114P
ECL multispot value [21]: 1.4 | ECL multispot value [22]: 1.1 | ECL multispot value [23]: 1.3 | ECL multispot value [24]: 2.3 | ECL multispot value [25]: 2.7 | ECL multispot value [26]: 0.9 | ECL multispot value [27]: 1.4 | ECL multispot value [28]: 1.1 | ECL multispot value [29]: 1.2

B10: Fab VH3-23_IGHD2-21*01>3_IGHJ6*01 H100E/S108P/Y113G Y114T & V2-13_IGLJ2*01 (Fab, V domains shown)
VH: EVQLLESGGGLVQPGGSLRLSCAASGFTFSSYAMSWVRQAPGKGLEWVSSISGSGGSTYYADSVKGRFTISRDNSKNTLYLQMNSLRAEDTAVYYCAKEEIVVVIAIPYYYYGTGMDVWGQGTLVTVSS
VL: B7 VL
notes: Tested as Fab made in E. coli (VH-CH1 with His and Flag tags; lambda CL); also called EPG Y114T
ECL multispot value [21]: 1.8 | ECL multispot value [22]: 1.6 | ECL multispot value [23]: 1.7 | ECL multispot value [24]: 2 | ECL multispot value [25]: 1.8 | ECL multispot value [26]: 1.1 | ECL multispot value [27]: 1.4 | ECL multispot value [28]: 1.1 | ECL multispot value [29]: 1.3
